The values below come from patent CN116715774A (WUHAN ABCLONAL INC, dated 2023).

The test concerns the target T1, 重组人AXL蛋白 (recombinant human AXL protein) (human, UniProt P30530 26-449, limits assumed).
T1 construct: also called 重组人AXL截短蛋白; 人受体酪氨酸激酶AXL
T1 sequence (looked up): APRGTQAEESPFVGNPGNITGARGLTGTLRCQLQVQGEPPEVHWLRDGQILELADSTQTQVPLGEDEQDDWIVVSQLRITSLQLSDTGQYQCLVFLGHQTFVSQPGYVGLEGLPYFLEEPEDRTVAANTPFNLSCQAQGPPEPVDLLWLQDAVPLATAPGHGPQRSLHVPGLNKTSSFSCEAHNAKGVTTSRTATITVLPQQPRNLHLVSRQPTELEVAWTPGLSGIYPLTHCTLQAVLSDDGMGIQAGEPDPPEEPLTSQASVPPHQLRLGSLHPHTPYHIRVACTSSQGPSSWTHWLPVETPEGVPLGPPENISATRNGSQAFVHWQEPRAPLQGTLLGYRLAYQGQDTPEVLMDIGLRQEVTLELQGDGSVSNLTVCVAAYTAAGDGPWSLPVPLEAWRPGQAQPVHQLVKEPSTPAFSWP
The experiment in a line: BLI (Gator biomolecular interaction analyser), antibody against recombinant human AXL.

B1: 兔单克隆抗体B (rabbit monoclonal antibody B against human AXL) (antibody, V domains shown)
VH: QEQLKESGGGLVQPGGSLKLSCKASGFSLSYYGVNWVRQAPGKGLEWIACIDPVFGATYYASWVNDRFTISSHNAQNTLYLQLSSLTPADTATYFCARGRYYRYGYTYATGMDIWGPGTLVTVSS
VL: AIDMTQTPSSVSAAVGDTVTINCQASEDIYSFLAWYQQKPGHSPKLLIYDASKLASGVSSRFKGSGSGTQFTLTISGVQCDDAATYYCQQTYSVSNADTAFGGGTEVVVKG
notes: also called 抗人AXL兔单克隆抗体B
Turning to B1, the equilibrium dissociation constant (Kd) was determined as 1.14 nM, the dissociation rate constant (koff) is 0.000387 s⁻¹ and the on-rate constant (kon) is 341000 M⁻¹ s⁻¹.

B2: 兔单克隆抗体A (rabbit monoclonal antibody A against human AXL) (antibody, V domains shown)
VH: QSVEESGGRLVTPGTPLTLTCTVSGIDLSTYAMIWVRQAPGEGLEWIGTIYTDGATAYARWAKGRFTISKTSTTVDLKMTSLTTEDTATYFCARGFGISKFVFSLWGPGTLVTVSL
VL: DIVMTQTPASVEAAVGDTVTIKCQASQNIYSNLAWYQQKPGQPPKLLIYFASNLPSGVPSRFKGSGSGTEYTLTISGVQCDDAATYYCQNYYINEIVFGGGTEVVVKG
notes: also called 抗人AXL兔单克隆抗体A
For B2, the Kd turned out to be 0.555 nM, the koff was determined as 0.000132 s⁻¹ and the kon was 237000 M⁻¹ s⁻¹.
